Legend:
Test in all cases: MST; MST: 20 mM PBS pH 7.5, 300 mM NaCl, 0.05% Tween 20, 25 C, 50 nM RNA; EMSA: 20 mM Tris-HCl pH 7.5, 300 mM NaCl, 5 mM b-mercaptoethanol, 20% glycerol, agarose gel in Tris-glycine pH 8.0 (8.5 for FAM-RNA), 4 C
[1] = biological target: T1, KAE1;BUD32 K55E;CGI121;PCC1 (Arabidopsis thaliana;Arabidopsis …, UniProt O49653;Q94K14;Q6NMZ4;Q8GWD7 1-353;1-226;1-172;1-96, |K55E||); details: protein: recombinant;recombinant;recombinant;recombinant; tags: none (6His on partner PCC1);;6His (C-term);6His (C-term); chain copies: 2;2;2;2; label: 5' 6-FAM; tRNA cloverleaf
T1 sequence 1: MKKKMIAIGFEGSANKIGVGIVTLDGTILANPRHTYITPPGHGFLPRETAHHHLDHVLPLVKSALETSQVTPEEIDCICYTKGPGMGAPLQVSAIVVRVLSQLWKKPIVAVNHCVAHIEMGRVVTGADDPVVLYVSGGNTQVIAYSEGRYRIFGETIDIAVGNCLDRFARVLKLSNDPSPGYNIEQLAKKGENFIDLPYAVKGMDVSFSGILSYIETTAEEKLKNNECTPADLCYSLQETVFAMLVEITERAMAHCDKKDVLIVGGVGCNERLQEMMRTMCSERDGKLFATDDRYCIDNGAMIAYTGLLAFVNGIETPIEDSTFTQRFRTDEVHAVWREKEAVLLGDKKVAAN
T1 sequence 2: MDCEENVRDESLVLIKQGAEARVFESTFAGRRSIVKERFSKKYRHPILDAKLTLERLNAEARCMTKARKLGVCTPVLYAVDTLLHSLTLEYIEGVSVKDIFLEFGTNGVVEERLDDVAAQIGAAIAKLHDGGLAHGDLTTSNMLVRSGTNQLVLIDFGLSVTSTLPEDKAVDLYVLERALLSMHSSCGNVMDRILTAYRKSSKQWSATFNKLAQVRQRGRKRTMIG
T1 sequence 3: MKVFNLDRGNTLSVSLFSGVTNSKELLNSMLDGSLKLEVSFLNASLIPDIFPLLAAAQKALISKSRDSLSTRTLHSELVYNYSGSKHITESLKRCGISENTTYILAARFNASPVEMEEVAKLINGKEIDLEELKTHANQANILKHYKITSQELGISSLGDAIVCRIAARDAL
T1 sequence 4: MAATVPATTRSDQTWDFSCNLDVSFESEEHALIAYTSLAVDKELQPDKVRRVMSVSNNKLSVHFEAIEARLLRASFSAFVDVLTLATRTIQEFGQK

[2] = biological target: T2, KAE1;BUD32 N58R;CGI121;PCC1 (Arabidopsis thaliana;Arabidopsis …, UniProt O49653;Q94K14;Q6NMZ4;Q8GWD7 1-353;1-226;1-172;1-96, |N58R||); details: protein: recombinant;recombinant;recombinant;recombinant; tags: none (6His on partner PCC1);;6His (C-term);6His (C-term); chain copies: 2;2;2;2; label: 5' 6-FAM; tRNA cloverleaf
T2 sequence 1: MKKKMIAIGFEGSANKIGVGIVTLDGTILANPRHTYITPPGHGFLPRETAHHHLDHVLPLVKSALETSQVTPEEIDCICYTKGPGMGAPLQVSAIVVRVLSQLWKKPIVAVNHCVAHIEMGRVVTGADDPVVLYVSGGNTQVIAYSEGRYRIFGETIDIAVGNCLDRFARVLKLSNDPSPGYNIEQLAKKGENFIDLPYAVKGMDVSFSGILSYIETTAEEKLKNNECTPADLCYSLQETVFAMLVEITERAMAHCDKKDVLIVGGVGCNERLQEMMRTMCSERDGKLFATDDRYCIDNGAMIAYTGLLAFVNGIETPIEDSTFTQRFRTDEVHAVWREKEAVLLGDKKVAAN
T2 sequence 2: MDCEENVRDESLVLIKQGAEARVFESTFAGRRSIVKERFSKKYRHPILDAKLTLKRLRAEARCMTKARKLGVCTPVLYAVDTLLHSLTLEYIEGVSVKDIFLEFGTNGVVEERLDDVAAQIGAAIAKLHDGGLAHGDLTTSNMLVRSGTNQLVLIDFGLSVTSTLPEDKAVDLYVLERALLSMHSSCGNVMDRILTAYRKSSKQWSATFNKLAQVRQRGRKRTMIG
T2 sequence 3: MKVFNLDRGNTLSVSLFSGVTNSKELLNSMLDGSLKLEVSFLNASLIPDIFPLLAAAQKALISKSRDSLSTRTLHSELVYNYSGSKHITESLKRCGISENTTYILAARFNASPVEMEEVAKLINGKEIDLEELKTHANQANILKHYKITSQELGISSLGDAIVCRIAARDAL
T2 sequence 4: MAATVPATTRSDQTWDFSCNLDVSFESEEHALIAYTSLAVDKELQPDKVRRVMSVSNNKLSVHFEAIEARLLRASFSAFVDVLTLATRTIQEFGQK

[3] = biological target: T3, KAE1 mutant-1;BUD32;CGI121;PCC1 (Arabidopsis thaliana;Arabidopsis …, UniProt O49653;Q94K14;Q6NMZ4;Q8GWD7 1-353;1-226;1-172;1-96, Y36R;I37K;T38R;P39R;P40R;G41W;H42D|||); details: protein: recombinant;recombinant;recombinant;recombinant; tags: ;none (6His on partner CGI121);6His (C-term);6His (C-term); chain copies: 2;2;2;2; label: 5' 6-FAM; tRNA cloverleaf
T3 sequence 1: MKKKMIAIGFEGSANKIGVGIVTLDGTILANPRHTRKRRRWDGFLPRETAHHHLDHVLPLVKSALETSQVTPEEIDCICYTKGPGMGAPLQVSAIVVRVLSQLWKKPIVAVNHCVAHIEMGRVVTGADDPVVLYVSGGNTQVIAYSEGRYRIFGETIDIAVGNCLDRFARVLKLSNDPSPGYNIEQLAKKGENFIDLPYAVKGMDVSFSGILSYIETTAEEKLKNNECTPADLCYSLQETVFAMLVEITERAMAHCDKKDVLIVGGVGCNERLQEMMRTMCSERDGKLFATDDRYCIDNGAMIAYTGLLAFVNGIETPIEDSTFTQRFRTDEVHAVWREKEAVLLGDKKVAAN
T3 sequence 2: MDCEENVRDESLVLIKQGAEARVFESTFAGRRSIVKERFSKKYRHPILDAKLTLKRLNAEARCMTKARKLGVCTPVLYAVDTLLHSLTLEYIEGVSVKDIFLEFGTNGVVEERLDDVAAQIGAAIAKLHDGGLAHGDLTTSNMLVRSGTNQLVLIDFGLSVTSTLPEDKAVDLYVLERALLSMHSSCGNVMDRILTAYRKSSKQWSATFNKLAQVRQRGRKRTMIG
T3 sequence 3: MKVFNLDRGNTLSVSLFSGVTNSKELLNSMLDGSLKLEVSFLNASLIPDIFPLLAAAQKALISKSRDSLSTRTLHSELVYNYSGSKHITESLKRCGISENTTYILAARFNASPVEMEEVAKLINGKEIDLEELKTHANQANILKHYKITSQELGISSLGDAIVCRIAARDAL
T3 sequence 4: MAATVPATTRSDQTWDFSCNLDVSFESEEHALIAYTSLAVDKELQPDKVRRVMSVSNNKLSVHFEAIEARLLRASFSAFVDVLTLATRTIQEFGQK

[4] = biological target: T4, KAE1;BUD32 S163R;CGI121;PCC1 (Arabidopsis thaliana;Arabidopsis …, UniProt O49653;Q94K14;Q6NMZ4;Q8GWD7 1-353;1-226;1-172;1-96, |S163R||); details: protein: recombinant;recombinant;recombinant;recombinant; tags: none (6His on partner PCC1);;6His (C-term);6His (C-term); chain copies: 2;2;2;2; label: 5' 6-FAM; tRNA cloverleaf
T4 sequence 1: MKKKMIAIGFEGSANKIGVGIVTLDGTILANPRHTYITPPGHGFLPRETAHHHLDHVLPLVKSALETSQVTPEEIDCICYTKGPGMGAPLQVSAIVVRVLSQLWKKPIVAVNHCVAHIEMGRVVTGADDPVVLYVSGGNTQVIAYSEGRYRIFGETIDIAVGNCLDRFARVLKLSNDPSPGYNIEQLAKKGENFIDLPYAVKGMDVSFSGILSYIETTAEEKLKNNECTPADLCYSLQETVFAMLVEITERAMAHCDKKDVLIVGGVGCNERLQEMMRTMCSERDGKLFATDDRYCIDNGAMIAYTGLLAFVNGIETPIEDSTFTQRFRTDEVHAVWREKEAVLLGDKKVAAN
T4 sequence 2: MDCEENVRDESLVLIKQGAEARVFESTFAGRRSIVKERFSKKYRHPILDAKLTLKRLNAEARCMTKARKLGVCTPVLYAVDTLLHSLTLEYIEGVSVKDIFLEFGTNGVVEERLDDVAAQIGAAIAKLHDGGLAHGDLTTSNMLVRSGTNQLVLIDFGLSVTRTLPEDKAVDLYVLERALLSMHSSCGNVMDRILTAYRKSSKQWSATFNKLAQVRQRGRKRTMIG
T4 sequence 3: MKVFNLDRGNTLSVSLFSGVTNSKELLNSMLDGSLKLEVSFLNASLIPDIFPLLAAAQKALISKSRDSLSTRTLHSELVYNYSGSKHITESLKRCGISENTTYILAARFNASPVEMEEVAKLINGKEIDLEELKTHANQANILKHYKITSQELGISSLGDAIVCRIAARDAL
T4 sequence 4: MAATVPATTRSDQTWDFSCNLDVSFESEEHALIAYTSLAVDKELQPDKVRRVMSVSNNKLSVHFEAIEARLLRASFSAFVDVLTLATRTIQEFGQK

B1: 5'-6FAM-tRNAArgCCU (structured_RNA)
RNA: GCGCCUGUAGCUCAGUGGAUAGAGCGUCUGUUUCCUAAGCAGAAGGUCGUAGGUUCGACCCCUACCUGGCGCGCCA
[1]
  Kd: 104 ± 15.2 µM
[2]
  Kd: 9.81 ± 2.73 µM
[3]
  Kd: 5.27 ± 1.2 µM
[4]
  Kd: 330 ± 11.1 µM
